The text below walks through data of patent publication US7374891B2, “Methods to identify compounds that modulate rage” (TransTech Pharma, Inc., priority 2000, dated 2008).

pKd: −log10 of the molar value. Read-outs that look alike come from different tables or passages of the source.

In this assay the target is T1, S-100b (Homo sapiens, UniProt P04271).
T1 sequence (P04271 2-92 limits assumed): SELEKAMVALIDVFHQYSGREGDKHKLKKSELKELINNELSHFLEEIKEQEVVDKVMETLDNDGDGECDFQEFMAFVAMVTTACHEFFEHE
As to the kind of experiment: Saturation binding of sRAGE to immobilized S-100b (ELISA, Scatchard analysis). The method, then: Generally, the protocol for detection of RAGE modulators is as follows. RAGE ligand (e.g. S-100b, β-amyloid, CML) is diluted to 5 μg/ml in buffer A (fixing buffer) (100 mM Na2CO3/NaHCO3, pH 9.8) and 100 μl added to microtiter plate wells and allowed to incubate overnight at 4° C. to allow the ligand to become fixed to the surface of the wells. Wells are then washed 3 times with 400 μl/well buffer C (wash buffer) (20 mM Imidazole, 150 mM NaCl, pH 7.2), with a 5 second soak in buffer C between each wash. Buffer B (blocking buffer) (50 mM Imidazole pH 7.2, 5% BSA, 5 mM CaCl2, 5 mM MgCl2) is then added to the wells and allowed to incubate for 2 hours at 37° C. to block nonspecific protein binding sites. The blocking buffer is then aspirated from the wells, and the plate washed 3 times (400 μl/well) with buffer C, with a 5 second soak in buffer C between each wash. The compound of interest, 25 μl dissolved in 2% DMSO FAC (Final Assay Concentration ) and sRAGE (75 μl) (2.2×10^−4 mg/ml FAC) are then added to each well, and incubated 1 hour at 37° C. Meanwhile, polyclonal antibody or monoclonal antibody for sRAGE (e.g. 3.0×10^−3 mg/ml and 1.9×10^−4 mg/ml FAC, respectively), biotinylated goat F (ab′)2 anti-mouse IgG (e.g. 8.0×10^−4mg/ml FAC) (Biosource International, Camarillo, Calif. (TAGO)), and alkaline phosphatase labeled streptavidin (3.0×10^−3 mg/ml FAC) (ZYMED, San Francisco, Calif.) are added to 5 ml of buffer D (complex buffer) (50 mM Imidazole, pH 7.2; 0.2% BSA, 5 mM CaCl2, 5 mM MgCl2) in a 15 ml conical tube and allowed to incubate 30 minutes at room temperature.
The solution containing sRAGE and the compound of interest is then aspirated from each well, and after 3 washes with wash buffer, with a 5 second soak between each wash, the anti-sRAGE:IgG:streptavidin-alkaline phosphatase complex is added to each well (100 μl complex per well). After 1 hour at room temperature, the solution in each well is aspirated, and the wells washed 3 times, with 5 second soaks between each wash.
The alkaline phosphatase substrate, para-nitrophenyl phosphate (pNPP) (1 mg/ml in 1 M diethanolamine, pH 9.8), is added and the color allowed to develop for 1 hr in the dark. After the addition of 10 μl stop solution per well (0.5 N NaOH; 50% methanol), the OD405 is measured.
In the experiment shown in FIG. 10, wells were coated by incubation with 500 ng/well S-100b overnight, and after washing, sRAGE diluted in buffer D added to the final concentrations shown. […]
The utility of the assay for detecting compounds which antagonize both low and high affinity RAGE binding domains is shown in FIGS. 8-11. […] The amount of sRAGE bound to the immobilized ligand was detected using anti-sRAGE polyclonal or monoclonal antibody (3.0×10^−3 mg/ml and 1.9×10^−4 mg/ml FAC, respectively) and the development system as described in Example 1. Plots were linearized by means of Scatchard analysis and values for Kd and Bmax determined. Statistical analysis of experimental precision was determined by utilizing GraghPad Prisam version 3 software (GraphPad Software, Inc. San Diego, Calif.).
Both low and high affinity binding of sRAGE to S-100b are detected using the assay method of the invention. […] After washing, sRAGE comprising a final concentration ranging from about 0.3 to 10 nM was added to each well, and after 1 hour at 37° C., bound sRAGE was measured by the addition of polyclonal antibody complex. […]
On the technique in general: ELISA stands for enzyme-linked immunosorbent assay.

A word on the pKd: it is the Kd on a negative log10 scale, so that one unit is a factor of ten. With “sRAGE: soluble, extracellular portion of RAGE, as defined by the amino acid sequence SEQ ID NO: 2”, the negative-log Kd (pKd) reads like this: (S-100b 50 ng/well, sRAGE about 0.3 to 10 nM, FIG. 8, read-out: Kd, high affinity binding component) around 8.22; (S-100b 100 ng/well, sRAGE about 0.3 to 10 nM, FIG. 9, read-out: Kd, high affinity binding component) around 8.70; (S-100b 500 ng/well, four separate determinations, FIG. 10, read-out: Kd value) 7.22; (S-100b 500 and 100 ng/well, sRAGE 24 to 480 nM and 5 to 80 nM, FIGS. 10 and 11, read-out: Kd, low affinity binding site) around 7.22; (sRAGE 0.3 to 10 nM, FIGS. 8 and 9, read-out: Kd, high affinity binding site) 8.22 to 8.70.
